Consider three molecules from patent US20180030136A1 (GlaxoSmithKline, published 2018).

One assay addresses T1, cynomolgus ICOS (cynomolgus).
T1 construct: also called cyno ICOS; Biacore cyno
The assay is described as follows: Biacore, cyno ICOS. (In general: Surface plasmon resonance follows binding to a sensor surface in real time, without labels.)

The target in another assay is T2, human ICOS on cells (human, UniProt Q9Y6W8 21-167).
T2 sequence: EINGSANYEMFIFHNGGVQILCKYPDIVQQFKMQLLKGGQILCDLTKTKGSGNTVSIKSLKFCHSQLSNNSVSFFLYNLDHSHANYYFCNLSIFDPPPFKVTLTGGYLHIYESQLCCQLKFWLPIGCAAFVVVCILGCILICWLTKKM
The assay is described as follows: cell-based or functional assay.

The target in a further assay is T3, Cyno ICOS-Fc (cynomolgus; rabbit).
T3 construct: also called cyno ICOS (rabbit Fc)
The assay is described as follows: BIAcore T200, antibody captured on anti-human IgG, ICOS (rabbit Fc) as analyte, 25 C, 1:1 model. The procedure:
The binding kinetics affinity of the humanized H2L5 hIgG4PE antibody was determined used the BIAcore T200Anti-human IgG on Fc2 of a CM5 chip Anti-ICOS H2L5 hIgG4PE captured on the surface. Anti-human IgG surface blocked with 0.1 mg/mL hIgG1 control to prevent non-specific binding of rabbit Fc. Human and cyno ICOS (rabbit Fc) passed over the captured antibodies at 256 nM, 64 nM, 16 nM, 4 nM and 1 nM. Buffer alone was used to double reference binding curves. MgCl₂ was used to regenerate surface. Run carried out at 25° C. Data fitted to 1:1 model using T200 evaluation software. Antibody concentration: 2.5 μg/mL
The ICOS binding data was fitted to a 1:1 kinetics model using the T200 data analysis software.

B1: ICOS mAb clone 422.2 (antibody, V domains shown)
VH: QVQLQQSGPELVRPGESVKISCMGSGYTFTDYAMHWVKQSHAKSLEWIGLISIYSDHTNYNQKFQGKATMTVDKSSSTAYMELARLTSEDSAIYYCGRNNYGNYGWYFDVWGAGTTVTVSS
VL: ENVLTQSPAIMSASPGEKVTMTCSASSSVSYMHWYQQKSITSPKLWIYDTSKLASGVPGRFSGSGSGNSYSLTISSMEAEDVATYYCFQGSGYPYTFGGGTKLEIKR
notes: murine hybridoma mAb
Consider B1, for which, in the assay with cynomolgus ICOS, binding was put at a Kd of 4.46 nM. In other words, the single-digit nanomolar range.

B2: ICOS mAb clone 88.2 (antibody, V domains shown)
VH: QVQLQQPGAELVRPGASVKLSCKASGYSFTSYWINWVKQRPGQGLEWIGNIYPSDSYTNYNQMFKDKATLTVDKSSNTAYMQLTSPTSEDSAVYYCTRWNLSYYFDNNYYLDYWGQGTTLTVSS
VL: QAVVTQESALTTSPGETVTLTCRSSTGAVTTSNYANWVQEKPDHLFTGLIGGTNNRAPGVPARFSGSLIGDKAALTITGAQTEDEAIYFCALWYNNHLVFGGGTKLTVL
notes: murine anti-human ICOS mAb
Regarding B2, the Kd with cynomolgus ICOS turned out to be 23 nM.

B3: H2L5 hIgG4PE (antibody)
heavy: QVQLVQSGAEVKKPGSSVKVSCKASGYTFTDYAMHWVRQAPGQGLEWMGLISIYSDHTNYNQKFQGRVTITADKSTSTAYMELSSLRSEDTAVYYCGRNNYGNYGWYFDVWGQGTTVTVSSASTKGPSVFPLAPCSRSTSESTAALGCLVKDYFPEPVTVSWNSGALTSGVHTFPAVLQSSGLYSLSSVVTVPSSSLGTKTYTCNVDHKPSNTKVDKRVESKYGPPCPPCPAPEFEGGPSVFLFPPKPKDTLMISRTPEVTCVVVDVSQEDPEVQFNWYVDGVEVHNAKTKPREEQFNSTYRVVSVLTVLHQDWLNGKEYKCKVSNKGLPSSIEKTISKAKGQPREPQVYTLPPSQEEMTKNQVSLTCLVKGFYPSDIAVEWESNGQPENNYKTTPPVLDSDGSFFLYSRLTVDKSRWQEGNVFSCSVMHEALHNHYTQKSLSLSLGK
light: EIVLTQSPATLSLSPGERATLSCSASSSVSYMHWYQQKPGQAPRLLIYDTSKLASGIPARFSGSGSGTDYTLTISSLEPEDFAVYYCFQGSGYPYTFGQGTKLEIKRTVAAPSVFIFPPSDEQLKSGTASVVCLLNNFYPREAKVQWKVDNALQSGNSQESVTEQDSKDSTYSLSSTLTLSKADYEKHKVYACEVTHQGLSSPVTKSFNRGEC
notes: also called H2L5 IgG4PE; copies: 2 + 2
Regarding B3, in the assay with human ICOS on cells, the “EC50 CD8+OX40+, donor 1149M52, 24 hr” value was 1.5 µg/mL and the “EC50 IFN-γ, donor 1136F50, 48 hr” value stood at 1.5 µg/mL. In the assay with Cyno ICOS-Fc, this molecule displayed a Kd of 0.949 nM, a koff of 0.000371 s⁻¹ and an on-rate constant (kon) of 391000 M⁻¹ s⁻¹.

Broadly, the Kd is the concentration at which binding is half-saturated. High values mean a looser complex, low ones a tighter complex. A word on the koff: it is a measure of how fast the partners let go of each other. The term kon denotes the second-order rate constant of association.
